Experimental data: publication PMC3022644, “The exopolyphosphatase TbrPPX1 of Trypanosoma brucei” (BMC Microbiology, 2011)

Substrate: O=P(O)(O)OP(=O)(O)OP(=O)(O)O
Test: purified protein
Type: biochemical, Trypanosoma brucei
Settings: 50 mM HEPES pH 7.8, 50 μM EGTA, 1 mM MgCl2, 30°C, GST fusion

B1: TbrPPX1 (Trypanosoma brucei) (protein)
chain: MTAVVNEFLKRGVRALAARQDSVLVMGNEGGDMDTVIGSIFLAMYLEKRDVFGVGSYVPVLNFEKDDLPLRQDVVKLLSRHNVSTDSIYSVKQSGNGVDFLDLHQMKLPIVLYDHNKLSPEQVYLGERIVGVVDHHEDEQLYVDQTKCLRRICKTGSACTLVAELFNEAGLEVPCPELLLAPIVVDTVNFEPSQKRVTERDILASRLLVGRDDCGDYLTGMFKELMAWKNDIHCLTVPQHLRRDYKNFEFPFISAENKILRVGISSISCRSDELLSVHGVSSVSSNCIEFIKQRSIDMLLLTFAGERTPGSYCRQLGVVAKDEGLAALQAYCKKSPSGLDFTLLEDVTVNEWAFSIYELSDPSVSRKKLVPSLTSFLSVWNNL
Km: 27.2 ± 4.2 µM
kcat: 8.1 ± 1.5 s⁻¹
